From PMC8776730 (Nature Communications, 2022)

Assays:
[1] = Critical assembly concentration (CAC) by pyrene fluorescence probe; type: physicochemical
Excerpt: In order to study the molecular design and their assembly behavior, we modular designed and synthesized seven molecules (Table 1), which respectively were BIVA probe: M1 (mPEG-GPAKLVFFGC(IR783)GRGD); the non- FAP-α tailoring molecule: M2 (mPEG-AGGKLVFFGC(IR783)GRGD) scrambled response tailoring motif of Gly-Pro-Ala with Ala-Gly-Gly; the non-labeling molecule of M1: M3 (mPEG-GPAKLVFFGCGRGD) removed IR783 labeling; FAP-α tailoring residue of M1: R-M1 (AKLVFFGC(IR783)GRGD); the non-targeting molecule: M4 (mPEG-GPAKLVFFGC(IR783)GDTG) scrambled targeting tailoring motif of Arg-Gly-Asp with Asp-Thr-Gly; the non-labeling molecule of M2: M5 (mPEG-AGGKLVFFGCGRGD) removed IR783 labeling; FAP-α tailoring residue of M3: R-M3 (AKLVFFGCGRGD). All the synthesized procedure (Supplementary Fig. 1) and characterizations of these seven molecules can be found in SI (Supplementary Figs. 2–8). […] Without IR783 labeling, molecules of M3 and M5 decreased the CAC value in solution relative to M1 and M2, which could be attributed to the proximity of the steric hindrance of hydrophilic IR783 to the self-assembly motif (Supplementary Fig. 9). […] The CAC was quantitatively calculated by fluorescence probe of pyrene.

[2] = Secondary structure proportions from CD spectra; type: physicochemical; settings: calculated by Reed's Reference based on CD spectra; DI water
Excerpt: To further evaluate the assembled structures, the corresponding circular dichroism (CD), Fourier transform infrared (FTIR) spectroscopy, and wide-angle X-ray scattering (WAXS) spectroscopy were applied. […] The FITR spectra of M1 and M3 in Fig. 3b observed the intermolecular interactions. The peaks at 1629 cm^−1, 1675 cm^−1, and 1698 cm^–1 of M3 indicated anti-parallel β-sheet structure (represent by green arrow heads), peaks at 1648 cm^−1 and 1663 cm^−1 indicated parallel beta sheet structure (represent by blue arrow heads), the existence of 1654 cm^−1 indicate α-Helix structure in M1 which verified the results deduced by CD in Fig. 3a[29],[30]. […] As a homologous sequence with amyloid β-protein (Aβ), the self-assembly motif with peptide sequence of KLVFFGCG had similar aggregation kinetics to (Aβ)42 peptide, which occurred via dynamic growth from oligomers to amyloid fibrils. The aggregation started from the freshly isolated monomers of R-M1, and precipitates were separated in 1 min and 1 h, respectively. […] After analyzed the CD spectra of M1, M3, and R-M1 (Fig. 3e), it can be clearly seen that the main secondary conformation of M1 was Random, the M3 was hybrid of Helix and Beta, and the R-M1 was Beta (Supplementary Table 1). All the results confirmed the conclusion from FTIR spectra. […] The dynamic growth procedure was like the 8-anilino-1-naphthalenesulfonic acid (ANS) stained curve (Supplementary Fig. 12). As known, ANS was sensitive to hydrophobic interaction. When R-M1 were in the initial oligomer, the fluorescence intensity of ANS increased due to the enhanced hydrophobicity. When the molecules were elongated and stacked in higher ordered nanofibrils, the blue shift of ANS in the β-sheet structures reduced the fluorescence. The molecular packing mode of well-ordered fibrils of R-M1 in Fig. 3g observed a weak reflection at 4.9 Å as laminates space and a strong broad reflection at 10.3 Å as sheet space, which was illustrated in the inserted figure. The fibril morphology was characterized by transmission electron microscopy (TEM) imaging (Fig. 3f). The statistical calculation of the fiber diameter in TEM images was 5.0 ± 0.4 nm (Supplementary Fig. 13), which was corresponded to the theoretical calculated two molecules length of R-M1. We assumed that the nanofibers were assembled by twisted R-M1 molecules centered on self-assembly motif.
The secondary structures of M1, M3 and R-M1 were verified by CD spectroscopy (JASCO Corporation, JC-1500) at room temperature with a cell path length of 1 cm. M1, […] and R-M1 were diluted to 100 μM with deionized water at 25 °C and allowed to stand for 12 h for complete assembly. Detail parameter setting were CD scale:200 mdeg/1.0Dod, measure range: 260~190 nm, scanning speed: 500 nm/min, bandwidth: 1.00 nm, and data pitch: 0.5 nm. All spectra were the average of three measurements.
Supplementary Table 1∣ Secondary structure proportions ofM1, M3 and R-M1 calculated by Reed’s Reference based on […]

Row | Substance | Critical assembly concentration (CAC) ([1]; aqueous solution, analyzed based on pyrene fluorescence) [µM] | Secondary structure proportion: Beta [2] [%] | Secondary structure proportion: Helix [2] [%] | Secondary structure proportion: Random [2] [%] | Secondary structure proportion: Turn [2] [%] | pyrene I1/I3 ([1]; conc 100 μM) | pyrene I1/I3 ([1]; conc 200 μM) | pyrene I1/I3 ([1]; conc 300 μM) | pyrene I1/I3 ([1]; conc 400 μM) | pyrene I1/I3 ([1]; conc 500 μM) | pyrene I1/I3 ([1]; conc 600 μM) | pyrene I1/I3 ([1]; conc 700 μM) | pyrene I1/I3 ([1]; conc 800 μM) | pyrene I1/I3 ([1]; conc 900 μM)
1 | mPEG-GPAKLVFFGC(IR783)GRGD [M1] | >500 | 32.2 | 0 | 66.1 | 1.7 | – | – | – | – | – | – | – | – | –
2 | mPEG-GPAKLVFFGCGRGD [M3, the non-labeling molecule of M1 (no IR783)] | – | 38.7 | 45 | 16.3 | 0 | 1.163 | 1.158 | 1.141 | 1.131 | 1.152 | 1.067 | 1.052 | 1.029 | 0.978
